According to the supplement of paper PMC10126150:
± gives the standard deviation of the averaged measurements.

Test system: ATP
Test: switch fluorescence ratio, 500 uM ATP over buffer (Cy3 cluster intensity, sum of 5 cycles each) (fold (ratio)); higher = stronger signal-on switching upon ATP binding; sequences stand for … in TCGTCGGCAGCGTCAGATGTGTATAAGAGACAGTTTTTTTTTTTTTTTTTTTTTTTTT…TC
Conditions: aptamer strand: ATP DNA aptamer (quencher-CACCTGGGGGAGTATTGCGGAGGAAGG + anchor), 100 nM annealed; ATP concentration: 500 uM
Outline: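 Exposure to 500 uM ATP lasted 15 min at 22 °C before imaging, and a selection-buffer image was taken beforehand, for Cy3-labelled switching-strand clusters on a modified Illumina MiSeq flow-cell annealed to 100 nM quencher-labelled ATP aptamer. Five buffer/ATP cycles were run with NaOH stripping and re-annealing between them. The fluorescence ratio per cluster is summed target-cycle over summed buffer-cycle Cy3 intensity, averaged per switch-domain sequence. Clusters outside 100-1000 RFU were excluded.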

Sequence	switch fluorescence ratio
CGGGGTACGG	1.01 ± 0.017
CGGGGTATTG	0.999 ± 0.039
CGGGGTCGG	1 ± 0.014
CGGGGTCTGG	0.978 ± 0.015
CGGGGTGGGT	0.978 ± 0.028
CGGGGTGGTG	1.04 ± 0.067
CGGGGTGTT	0.994 ± 0.017
CGGGGTTAGC	1.01 ± 0.014
CGGGTAACTT	1.02 ± 0.046
CGGGTAGCTT	1.017 ± 0.0093
CGGGTAGGGT	0.998 ± 0.039
CGGGTATATT	1.01 ± 0.032
CGGGTCATTT	0.9691 ± 0.0035
CGGGTCGAGC	1 ± 0.03
CGGGTCGCGG	0.992 ± 0.031
CGGGTCGGCG	1.01 ± 0.049
CGGGTCTAGC	1.01 ± 0.021
CGGGTGCGTG	0.981 ± 0.017
CGGGTGGCTG	0.995 ± 0.035
CGGGTTAGTC	1.07 ± 0.027
CGGGTTCTCG	0.978 ± 0.025
CGGGTTGAG	0.9967 ± 0.0066
CGGGTTGCAG	0.97 ± 0.019
CGGGTTTAAG	0.9933 ± 0.0026
CGGGTTTGGA	0.998 ± 0.035

Sequence	switch fluorescence ratio
CGGGTTTGTT	0.997 ± 0.02
CGGTACTTAT	0.983 ± 0.017
CGGTAGAGGG	0.982 ± 0.037
CGGTAGAGGT	1.01 ± 0.016
CGGTAGGAAT	1.018 ± 0.0077
CGGTAGTCGG	1.03 ± 0.027
CGGTAGTTGT	0.981 ± 0.014
CGGTATAATT	0.999 ± 0.042
CGGTATATTT	0.9712 ± 0.0058
CGGTATGAGG	0.9 ± 0.11
CGGTCAATTG	1 ± 0.036
CGGTCGACGA	1.01 ± 0.024
CGGTCTGAGG	1.017 ± 0.002
CGGTGAAGGG	0.994 ± 0.027
CGGTGACTGC	1.02 ± 0.099
CGGTGAGTAG	0.9876 ± 0.0092
CGGTGCCAAG	0.988 ± 0.042
CGGTGCTTGT	1.02 ± 0.037
CGGTGGACTA	1.008 ± 0.01
CGGTGGAGCT	1.01 ± 0.052
CGGTGGCATA	1.04 ± 0.018
CGGTGGCCGT	1.02 ± 0.019
CGGTGGCGTA	0.9975 ± 0.0035
CGGTGGCTGC	0.967 ± 0.011
CGGTGGGATT	0.979 ± 0.019

Sequence	switch fluorescence ratio
CGGTGGGTAA	1.01 ± 0.026
CGGTGGGTC	1.009 ± 0.0047
CGGTGGTCAG	1.01 ± 0.0076
CGGTGTATTT	0.9547 ± 0.0037
CGGTGTGTAG	0.983 ± 0.062
CGGTGTGTCC	0.97164 ± 0.00017
CGGTTAAGGC	1.07 ± 0.017
CGGTTACGGA	0.977 ± 0.035
CGGTTAGGTG	1.06 ± 0.021
CGGTTATAGG	0.967 ± 0.012
CGGTTATGGC	0.978 ± 0.019
CGGTTCCCTA	0.978 ± 0.033
CGGTTCGAGT	1.01 ± 0.035
CGGTTGAATG	0.98841 ± 0.00073
CGGTTGATCT	1.09 ± 0.13
CGGTTGGCAA	1.09 ± 0.054
CGGTTGGCCA	1 ± 0.018
CGGTTGGGTC	1.05 ± 0.051
CGGTTGGTGG	1.01 ± 0.014
CGGTTTAAGC	0.994 ± 0.046
CGGTTTAATA	1.03 ± 0.07
CGGTTTACGT	0.997 ± 0.018
CGGTTTAGGT	0.951 ± 0.017
CGGTTTGATT	1.04 ± 0.073
CGGTTTGCAG	0.972 ± 0.043

Sequence	switch fluorescence ratio
CGGTTTGGAG	0.995 ± 0.056
CGGTTTTACT	1.04 ± 0.021
CGGTTTTCTT	0.995 ± 0.012
CGGTTTTTAT	0.983 ± 0.018
CGGTTTTTGT	0.9992 ± 0.008
CGTAAAGGGA	0.987 ± 0.013
CGTAACTTAC	1.6 ± 0.097
CGTAAGACGT	1.03 ± 0.044
CGTAATTGTA	1.01 ± 0.018
CGTAATTTTC	1.09 ± 0.083
CGTACAAGTC	0.963 ± 0.058
CGTACAGCAG	1.01 ± 0.054
CGTACCAGGG	1.32 ± 0.036
CGTACCATCC	1.6 ± 0.18
CGTACCGGTC	1.04 ± 0.079
CGTACGCCGG	0.993 ± 0.021
CGTACTTGTT	1.01 ± 0.035
CGTAGACGAA	0.974 ± 0.0094
CGTAGACTGC	1.06 ± 0.024
CGTAGGAAAA	0.98 ± 0.096
CGTAGGATTT	0.9554 ± 0.0048
CGTAGGGAAT	1.014 ± 0.0064
CGTAGGGGGA	0.984 ± 0.015
CGTAGGGGTT	0.989 ± 0.028
CGTAGTAGAC	2.61 ± 0.26
